Measurements from article PMC3517355.

T1: CCHF Altamura Gn 611 peptide (Crimean-Congo hemorrhagic fever virus, UniProt Q8JSZ3)
T1 chain: TQEGRGHVKLSRGSE


Tests used:
Assay in all cases: ELASA; […] (0.5 M NaCl, 10 mM Tris-HCl, 1 mM MgCl2, pH 7.5-7.6), 1 h, RT (~25 C); […]
Settings in all cases: label: 5'-biotin
[1] = target: T1, CCHF Altamura Gn 611 peptide
[2] = target: CCHF 11E7a peptide (Crimean-Congo hemorrhagic fever virus, UniProt Q8JSZ3)
[3] = target: CCHF 11E7b peptide (Crimean-Congo hemorrhagic fever virus, UniProt Q8JSZ3)
[4] = target: CCHF 11E7c peptide (Crimean-Congo hemorrhagic fever virus, UniProt Q8JSZ3)

| Binder | binding signal [1] | binding signal [2] | binding signal [3] | also measured |
| --- | --- | --- | --- | --- |
| Gn6-17F (ssDNA) DNA: ATACGGGAGCCAACACCAAACTAGACAACCGCCCTTATACACACTGTACCAGTAGAGCAGGTGTGACGGAT | 1.82 A405 |  |  |  |
| E7a-23F (ssDNA) DNA: ATACGGGAGCCAACACCATGTCAGGACCTCCATCGCCCGGGCCCGCCGCCGCTGAGAGCAGGTGTGAC |  | 2.23 A405 |  |  |
| Gn6-16cR (ssDNA) DNA: ATCCGTCACACCTGCTCTGTCGGGATGCGCCGGGCCGCCATGATTAGTGTGCTCTGGTGTTGGCTCCCGTAT | 1.67 A405 |  |  |  |
| E7b-6R (ssDNA) DNA: ATCCGTCACACCTGCTCTTAACCTATTTGGGTCGCGTTCTCAAAATAACTTCTGTGGTGTTGGCTCCCGTAT |  |  | 1.86 A405 |  |
| E7b-1aR (ssDNA) DNA: ATCCGTCACACCTGCTCTGGAAGCTTCATATTTTGAGGAATCCTCTTGAATTATGGTGTTGGCTCCCGTAT |  |  | 2 A405 |  |
| Gn6-5F (ssDNA) DNA: ATACGGGAGCCAACACCACGCCTTGTCTATTCTCTTAGTTTCCTGCTACTCCACAGAGCAGGTGTGACGGAT | 1.75 A405 |  |  |  |
| Gn6-30F (ssDNA) DNA: ATACGGGAGCCAACACCATCCCACCGAATATCCGCTTTCCTCGTCCTCCTTTCAGAGCAGGTGTGACGGAT | 1.75 A405 |  |  |  |
| E7b-1bF (ssDNA) DNA: ATACGGGAGCCAACACCAGTCCGTTATGACATGTCCGGACCCGTACGCGTGTCAAAGAGCAGGTGTGACGGAT |  |  | 1.88 A405 |  |
| E7a-20F (ssDNA) DNA: ATACGGGAGCCAACACCACGCAGTTATAACGGCAGGCCCCATATCGTTTAACCAGAGCAGGTGTGACGGAT |  | 2.02 A405 |  |  |
| E7a-5R (ssDNA) DNA: ATCCGTCACACCTGCTCTTGACACGCGTACGGGGTCCGGACATGTCATAACGGACTGGTGTTGGCTCCCGTAT |  | 2.08 A405 |  |  |
| Gn6-25R (ssDNA) DNA: ATCCGTCACACCTGCTCTACAGTTAGAGCTTGCCGTATGCCTTTGTTAACATAATGGTGTTGGCTCCCGTAT | 1.94 A405 |  |  |  |
| E7c-23/25R (ssDNA) DNA: ATCCGTCACACCTGCTCTACAGTTAGAGCTTGCCGTATGCCTTTGTTAACATAATGGTGTTGGCTCCCGTAT |  |  |  | binding signal [4]: 2.12 A405 |
| E7b-5R (ssDNA) DNA: ATCCGTCACACCTGCTCTTGGGCATCAGCGGGCGATGCATGCGATAAATTAGTGTGGTGTTGGCTCCCGTAT |  |  | 1.86 A405 |  |
| E7a-33F (ssDNA) DNA: ATACGGGAGCCAACACCACACACAGAGCGCCATGGACTCAGTCAGATGTGATGTAGAGCAGGTGTGACGGAT |  | 2.07 A405 |  |  |
| E7a-29F (ssDNA) DNA: ATACGGCAGCCAACACCACACACATAGCGCTTTGTATTCAGCCGGATGTGATGTAGAGCAGGTGTGACGGAT |  | 2.06 A405 |  |  |
| Gn6-7bR (ssDNA) DNA: ATCCGTCACACCTGCTCTCACATACTGGTCAGTCTCTATCGAGGCGGGCATTGGTGTTGGCTCCCGTAT | 1.69 A405 |  |  |  |

| Binder | binding signal [1] | binding signal [2] | binding signal [3] | also measured |
| --- | --- | --- | --- | --- |
| E7a-33R (ssDNA) DNA: ATCCGTCACACCTGCTCTACATCACATCTGACTGAGTCCATGGCGCTCTGTGTGTGGTGTTGGCTCCCGTAT |  | 2.12 A405 |  |  |
| E7b-1aF (ssDNA) DNA: ATACGGGAGCCAACACCATAATTCAAGAGGATTCCTCAAAATATGAAGCTTCCAGAGCAGGTGTGACGGAT |  |  | 1.83 A405 |  |
| E7a-20R (ssDNA) DNA: ATCCGTCACACCTGCTCTGGTTAAACGATATGGGGCCTGCCGTTATAACTGCGTGGTGTTGGCTCCCGTAT |  | 2.04 A405 |  |  |
| E7a-11R (ssDNA) DNA: ATCCGTCACACCTGCTCTCGTGTGATATATATGGTAAGGGGGGTTAGTACTGCTGGTGTTGGCTCCCGTAT |  | 2.07 A405 |  |  |
| Gn6-16cF (ssDNA) DNA: ATACGGGAGCCAACACCAGAGCACACTAATCATGGCGGCCCGGCGCATCCCGACAGAGCAGGTGTGACGGAT | 1.9 A405 |  |  |  |
| E7b-1bR (ssDNA) DNA: ATCCGTCACACCTGCTCTTTGACACGCGTACGGGTCCGGACATGTCATAACGGACTGGTGTTGGCTCCCGTAT |  |  | 2.07 A405 |  |
| Gn6-15R (ssDNA) DNA: ATCCGTCACACCTGCTCTGGGCCAGGTAAGAAGATGCGAGCTGTGTAATACATGTGGTGTTGGCTCCCGTAT | 1.63 A405 |  |  |  |
| E7b-8a/10/16-19/23-25R (ssDNA) DNA: ATCCGTCACACCTGCTCTTGACACGCGTACGGGTCCGGACATGTCATAACGGACTGGTGTTGGCTCCCGTAT |  |  | 2 A405 |  |
| E7b-14R (ssDNA) DNA: ATCCGTCACACCTGCTCTTGACGCGCGAACGGGTCCGGACACGTCATAACGGAATGGTGCTGGCTCCCGTAA |  |  | 1.9 A405 |  |
| E7a-8R (ssDNA) DNA: ATCCGTCACACCTGCTCTCGCTGAAGCAAGACATTATCGGGACATTGCCGTGATGGTGTTGGCTCCCGTAT |  | 2.04 A405 |  |  |
| E7b-20/21R (ssDNA) DNA: ATCCGTCACACCTGCTCTCGCTGAAGCAAGACATTATCGGGACATTGCCGTGATGGTGTTGGCTCCCGTAT |  |  | 1.78 A405 |  |
| E7b-3R (ssDNA) DNA: ATCCGTCACACCTGCTCTAAAGGATCCTTCTTAGCATCACATTATGATAAGATATGGTGTTGGCTCCCGTAT |  |  | 1.94 A405 |  |
| Gn6-6R (ssDNA) DNA: ATCCGTCACACCTGCTCTGCATATAAATTTTTAACAAGGGACTGGTAACTATCCTGGTGTTGGCTCCCGTAT | 1.64 A405 |  |  |  |
| E7a-18F (ssDNA) DNA: ATACGGGAGCCAACACCAACAGATGGATAAGGGGGAAACTGCCCATTCGGTTAGTAGAGCAGGTGTGACGGAT |  | 2.08 A405 |  |  |
| Gn6-18F (ssDNA) DNA: ATACGGGAGCCAACACCATACGCACCCGCATTCGTTAGTGTGTACAGTATGTCCAGAGCAGGTGTGACGGAT | 1.86 A405 |  |  |  |
